According to patent publication US20180273634A1:
Where “and” joins values, the source holds several entries; their conditions need not be identical. Equal values may be shown once.

Legend:
[1] = molecular target: prostate specific antigen (PSA) (human) (UniProt P07288); experiment: SPR, Biacore 3000, PSA amine-coupled on CM4 chip, antibody in flow
[2] = molecular target: prostate specific antigen (PSA) (human) (UniProt P07288); experiment: SPR, Biacore 3000, PSA amine-coupled on CM4 chip, antibody in flow at 12.5-100 nM
[3] = molecular target: prostate specific antigen (PSA) (human) (UniProt P07288); experiment: SPR, Biacore 3000, PSA amine-coupled on CM4 chip, antibody in flow; dissociation followed 8 h

prostate specific antigen (PSA) (human), sequence (P07288 25-261 limits assumed): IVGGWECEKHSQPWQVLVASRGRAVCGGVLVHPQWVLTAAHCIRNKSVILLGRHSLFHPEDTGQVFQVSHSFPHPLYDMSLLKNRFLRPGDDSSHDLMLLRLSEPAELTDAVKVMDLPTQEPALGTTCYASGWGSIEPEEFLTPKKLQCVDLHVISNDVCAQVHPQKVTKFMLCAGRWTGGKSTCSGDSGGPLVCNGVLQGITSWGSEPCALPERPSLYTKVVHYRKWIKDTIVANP

Kd [1]	kon [2]	koff [3]	Substance
0.02 nM	270000 M⁻¹ s⁻¹	6.3e-06 s⁻¹	m5A10-DTPA (antibody)
0.02 nM	290000 M⁻¹ s⁻¹	6.6e-06 s⁻¹	m5A10-DFO (antibody)
0.02 nM	280000 M⁻¹ s⁻¹	6.3e-06 s⁻¹	m5A10-DOTA (antibody)
0.02 nM	290000 M⁻¹ s⁻¹ and 250000 M⁻¹ s⁻¹	6.3e-06 s⁻¹ and 5.4e-06 s⁻¹	murine 5A10 monoclonal antibody (m5A10)
